From article PMC5985294 come the findings set out here.

This experiment concerns the target Neutrophil elastase (NE), active, human (human) (UniProt P08246).
Chain of UniProt P08246 (P08246 30-267): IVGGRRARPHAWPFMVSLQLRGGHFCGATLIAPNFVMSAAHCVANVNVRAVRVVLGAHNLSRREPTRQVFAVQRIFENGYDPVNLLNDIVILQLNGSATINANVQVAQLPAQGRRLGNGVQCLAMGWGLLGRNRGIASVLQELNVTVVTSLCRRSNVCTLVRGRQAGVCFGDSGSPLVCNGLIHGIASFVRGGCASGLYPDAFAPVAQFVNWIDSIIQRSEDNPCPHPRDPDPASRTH
On to “MMP-9-treated SLPI, MMP-9/SLPI molar ratio 1/5 (from UniProt P03973 26-41; P03973 42-96; P03973 97-132)”, for which the IC50 of inhibition of NE (5 nM) degradation of fluorogenic elastase substrate V (MeOSuc-Ala-Ala-Pro-Val-AMC), after 30 min pre-incubation at 37°C came to 0.0763 µM and the IC50 of inhibition of NE (5 nM) gelatinolytic activity, DQ-gelatin degradation, with 50 µM SB-3CT was 0.0512 µM.

In turn, “MMP-9-treated SLPI, MMP-9/SLPI molar ratio 1/20 (from UniProt P03973 26-96; P03973 97-132)” yielded an IC50 of inhibition of NE (5 nM) degradation of fluorogenic elastase substrate V (MeOSuc-Ala-Ala-Pro-Val-AMC), after 30 min pre-incubation at 37°C of 0.0289 µM and an IC50 of inhibition of NE (5 nM) gelatinolytic activity, DQ-gelatin degradation, with 50 µM SB-3CT of 0.00524 µM.

In the case of “Secretory leukocyte peptidase inhibitor (SLPI), intact (from UniProt P03973 26-132) (natural protein)”, the IC50 of inhibition of NE (5 nM) degradation of fluorogenic elastase substrate V (MeOSuc-Ala-Ala-Pro-Val-AMC), after 30 min pre-incubation at 37°C turned out to be 0.00871 µM and the IC50 of inhibition of NE (5 nM) gelatinolytic activity, DQ-gelatin degradation, with 50 µM SB-3CT stood at 0.00097 µM.
